Data: patent publication US20240239915A1 (Zymeworks, published 2024)
Where two headings read alike, the source gives them in different places.

T1: Recombinant Human Fc gamma RIIA/CD32a (H167) Protein (R&D Systems), His-tagged (human, UniProt P12318 34-218)
T1 construct: also called human FcγRIIa (H167); hFcγRIIa (H167)
T1 sequence: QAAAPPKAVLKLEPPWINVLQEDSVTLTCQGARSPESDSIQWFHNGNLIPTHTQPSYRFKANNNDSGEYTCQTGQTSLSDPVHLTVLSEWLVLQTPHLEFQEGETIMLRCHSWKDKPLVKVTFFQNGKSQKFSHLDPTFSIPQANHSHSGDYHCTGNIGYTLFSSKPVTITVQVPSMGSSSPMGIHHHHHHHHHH

T2: Recombinant Human Fc gamma RIIB/C (CD32b/c) Protein (R&D Systems), His-tagged (human, UniProt P31994 46-217)
T2 construct: also called human FcγRIIb/c; hFcγRIIb/c
T2 sequence: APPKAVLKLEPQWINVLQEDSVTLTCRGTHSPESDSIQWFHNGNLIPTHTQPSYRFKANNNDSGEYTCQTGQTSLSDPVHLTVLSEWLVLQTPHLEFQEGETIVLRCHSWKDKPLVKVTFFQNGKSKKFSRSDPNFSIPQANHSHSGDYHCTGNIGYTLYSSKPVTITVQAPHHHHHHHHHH

T3: Recombinant Human Fc gamma RIIIB/CD16b Protein (R&D Systems), His-tagged (human, UniProt O75015 20-208)
T3 construct: also called human FcγRIIIb; hFcγRIIIb
T3 chain: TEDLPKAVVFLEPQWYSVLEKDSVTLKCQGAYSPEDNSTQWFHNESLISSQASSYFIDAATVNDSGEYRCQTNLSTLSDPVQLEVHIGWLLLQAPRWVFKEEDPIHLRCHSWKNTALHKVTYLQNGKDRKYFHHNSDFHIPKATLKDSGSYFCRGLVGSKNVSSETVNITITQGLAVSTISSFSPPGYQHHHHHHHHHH

T4: Recombinant Cynomolgus Fc gamma RIIA/CD32a Protein (R&D Systems), His-tagged (cynomolgus)
T4 construct: also called cynomolgus FcγRIIa; cFcγRIIa
T4 chain: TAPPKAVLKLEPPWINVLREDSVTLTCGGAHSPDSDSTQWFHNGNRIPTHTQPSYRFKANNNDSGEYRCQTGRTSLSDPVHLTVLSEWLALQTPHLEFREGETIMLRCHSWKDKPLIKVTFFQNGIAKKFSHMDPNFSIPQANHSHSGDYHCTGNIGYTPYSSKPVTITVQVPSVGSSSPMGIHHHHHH

T5: Recombinant Cynomolgus Fc gamma RIIB protein (R&D Systems), His-tagged (cynomolgus)
T5 construct: also called cynomolgus FcγRIIb; cFcγRIIb
T5 chain: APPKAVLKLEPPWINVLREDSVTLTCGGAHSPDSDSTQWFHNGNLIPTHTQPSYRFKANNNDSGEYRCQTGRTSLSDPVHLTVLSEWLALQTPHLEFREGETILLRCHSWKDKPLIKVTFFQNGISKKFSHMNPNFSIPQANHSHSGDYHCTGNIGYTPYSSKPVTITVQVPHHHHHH

T6: Recombinant Cynomolgus Fc gamma RIII/CD16 Protein (R&D Systems), His-tagged (cynomolgus, UniProt Q8SPW2 17-208)
T6 construct: also called cynomolgus FcγRIII; cFcγRIII
T6 chain: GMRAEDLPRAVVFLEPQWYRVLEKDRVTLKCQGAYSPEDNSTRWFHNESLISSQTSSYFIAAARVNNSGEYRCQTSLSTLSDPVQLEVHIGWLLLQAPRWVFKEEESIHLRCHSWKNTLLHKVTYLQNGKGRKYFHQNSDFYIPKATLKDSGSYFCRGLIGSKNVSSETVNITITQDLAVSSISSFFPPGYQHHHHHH

T7: Recombinant Human Fc gamma RIIA/CD32a (R167) Protein (R&D Systems), His-tagged (human, UniProt P12318 36-218)
T7 construct: also called human FcγRIIa; hFcγRIIa
T7 chain: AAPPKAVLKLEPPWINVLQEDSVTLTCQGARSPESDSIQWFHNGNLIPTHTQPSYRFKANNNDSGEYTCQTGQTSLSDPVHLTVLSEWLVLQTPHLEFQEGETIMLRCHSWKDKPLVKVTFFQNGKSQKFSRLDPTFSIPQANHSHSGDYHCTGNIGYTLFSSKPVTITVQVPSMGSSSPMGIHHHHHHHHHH

T8: Recombinant Cynomolgus Monkey Fc gamma RI/CD64 Protein, CF (R&D Systems), His-tagged (cynomolgus, UniProt P12314 11-288 (human entry))
T8 construct: also called cynomolgus FcγRI; cFcγRI
T8 chain: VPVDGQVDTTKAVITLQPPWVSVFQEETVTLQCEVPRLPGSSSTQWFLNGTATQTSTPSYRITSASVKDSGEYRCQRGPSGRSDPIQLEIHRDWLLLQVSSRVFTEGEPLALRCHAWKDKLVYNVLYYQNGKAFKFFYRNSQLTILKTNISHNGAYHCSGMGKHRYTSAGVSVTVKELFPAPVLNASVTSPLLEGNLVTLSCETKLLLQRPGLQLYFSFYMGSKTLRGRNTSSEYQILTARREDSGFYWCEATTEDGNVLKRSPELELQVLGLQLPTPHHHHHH


What was measured:
[1] = target: T1, Recombinant Human Fc gamma RIIA/CD32a …; test: SPR (Biacore T200); receptor immobilized directly on CM5 chip, antibody as analyte at 4.7 µM
[2] = target: T2, Recombinant Human Fc gamma RIIB/C …; test: as above
[3] = target: T9, Recombinant Human Fc gamma RIIIA/CD16a protein (R&D Systems), His-tagged (human, UniProt P08637 17-208); test: as above
T9 construct: also called human FcγRIIIa; hFcγRIIIa
T9 sequence (P08637 other isoform, or with tags, fused parts or gaps): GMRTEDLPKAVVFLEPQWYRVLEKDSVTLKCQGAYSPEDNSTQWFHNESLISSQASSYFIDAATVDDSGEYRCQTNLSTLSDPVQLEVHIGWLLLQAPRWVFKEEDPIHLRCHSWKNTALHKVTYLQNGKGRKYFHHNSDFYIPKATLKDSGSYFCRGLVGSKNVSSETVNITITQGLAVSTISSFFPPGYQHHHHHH

[4] = target: T10, Recombinant Human Fc gamma RIIIA/CD16a (V176F) Protein (R&D Systems), His-tagged (human, UniProt P08637 17-208); test: as above
T10 construct: no further substitution applied; also called human FcγRIIIa (V176F); hFcγRIIIa (V176F)
T10 sequence (P08637 other isoform, or with tags, fused parts or gaps V176F V176F): as the sequence (P08637 other isoform, or with tags, fused parts or gaps) above, with V160F counted along it

[5] = target: T3, Recombinant Human Fc gamma RIIIB/CD16b …; test: as above
[6] = target: T4, Recombinant Cynomolgus Fc gamma …; test: as above
[7] = target: T5, Recombinant Cynomolgus Fc gamma RIIB …; test: as above
[8] = target: T6, Recombinant Cynomolgus Fc gamma …; test: as above
[9] = target: T1, Recombinant Human Fc gamma RIIA/CD32a …; test: as above; remark: listed apart in the source
[10] = target: T2, Recombinant Human Fc gamma RIIB/C …; test: as above; remark: listed apart in the source
[11] = target: T9, Recombinant Human Fc gamma RIIIA/CD16a …; test: as above; remark: listed apart in the source
[12] = target: T10, Recombinant Human Fc gamma RIIIA/CD16a …; test: as above; remark: listed apart in the source
[13] = target: T3, Recombinant Human Fc gamma RIIIB/CD16b …; test: as above
[14] = target: T4, Recombinant Cynomolgus Fc gamma …; test: as above
[15] = target: T5, Recombinant Cynomolgus Fc gamma RIIB …; test: as above
[16] = target: T6, Recombinant Cynomolgus Fc gamma …; test: as above
[17] = target: T9, Recombinant Human Fc gamma RIIIA/CD16a …; test: SPR (Biacore T200): human FcγRIIIa immobilised directly on a CM5 chip, antibody as analyte; RU plotted against antibody concentration
[18] = target: T3, Recombinant Human Fc gamma RIIIB/CD16b …; test: SPR (Biacore T200): human FcγRIIIb immobilised directly on a CM5 chip, antibody as analyte; RU plotted against antibody concentration
[19] = target: T7, Recombinant Human Fc gamma RIIA/CD32a …; test: SPR (Biacore T200); receptor immobilized directly on CM5 chip, antibody as analyte at 4.7 µM
[20] = target: T11, human FcRn (human neonatal Fc receptor large subunit p51 and beta2-microglobulin), biotinylated (human, UniProt P55899 24-297; P61769 21-119, biotinylated (site not stated)); test: BLI (Octet RED384), biotinylated FcRn on streptavidin biosensor, binding and dissociation at pH 6.0
T11 sequence (P55899 24-297 limits assumed, chain 1 of 2): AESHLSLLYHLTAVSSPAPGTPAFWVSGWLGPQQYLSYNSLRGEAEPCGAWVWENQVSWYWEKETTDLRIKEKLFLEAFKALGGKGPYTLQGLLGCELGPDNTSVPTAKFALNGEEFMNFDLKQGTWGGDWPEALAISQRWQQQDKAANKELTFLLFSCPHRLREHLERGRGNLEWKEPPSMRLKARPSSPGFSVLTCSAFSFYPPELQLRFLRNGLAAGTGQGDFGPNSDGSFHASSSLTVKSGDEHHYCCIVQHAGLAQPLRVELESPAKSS
T11 sequence (P61769 21-119 limits assumed, chain 2 of 2): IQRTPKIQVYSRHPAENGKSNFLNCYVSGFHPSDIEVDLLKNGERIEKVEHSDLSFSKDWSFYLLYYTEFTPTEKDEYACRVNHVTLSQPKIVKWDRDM

[21] = target: T8, Recombinant Cynomolgus Monkey Fc gamma …; test: SPR (Biacore T200); His-tagged receptor captured on anti-His antibody chip, antibody as analyte at 4.7 µM
[22] = target: T11, human FcRn (human neonatal Fc receptor …); test: BLI (Octet RED384), biotinylated FcRn on streptavidin biosensor, binding at pH 6.0, dissociation at pH 7.4; dissociation at pH 7.4 after binding at pH 6.0

| Binder | binding response (RU) [1] | binding response (RU) [2] | binding response (RU) [3] | binding response (RU) [4] | binding response (RU) [5] | binding response (RU) [6] | binding response (RU) [7] | binding response (RU) [8] | also measured |
| --- | --- | --- | --- | --- | --- | --- | --- | --- | --- |
| L234A/L235A/D265A (LALA-DA) variant of IgG1 WT of the anti-EGFR antibody panitumumab (antibody, Mutations in both CH2 domains; positions are EU numbers) heavy: QVQLQESGPGLVKPSETLSLTCTVSGGSVSSGDYYWTWIRQSPGKGLEWIGHIYYSGNTNYNPSLKSRLTISIDTSKTQFSLKLSSVTAADTAIYYCVRDRVTGAFDIWGQGTMVTVSSASTKGPSVFPLAPSSKSTSGGTAALGCLVKDYFPEPVTVSWNSGALTSGVHTFPAVLQSSGLYSLSSVVTVPSSSLGTQTYICNVNHKPSNTKVDKRVEPKSCDKTHTCPPCPAPEAAGGPSVFLFPPKPKDTLMISRTPEVTCVVVAVSHEDPEVKFNWYVDGVEVHNAKTKPREEQYNSTYRVVSVLTVLHQDWLNGKEYKCKVSNKALPAPIEKTISKAKGQPREPQVYTLPPSREEMTKNQVSLTCLVKGFYPSDIAVEWESNGQPENNYKTTPPVLDSDGSFFLYSKLTVDKSRWQQGNVFSCSVMHEALHNHYTQKSLSLSPGK light: not shown | 24 RU | 20 RU | 0.4 RU | -2.2 RU | 0.3 RU | 25 RU | 110 RU | 8.4 RU | binding response (RU) [9]: 24 RU; binding response (RU) [10]: 20 RU; binding response (RU) [11]: 0.4 RU; binding response (RU) [12]: -2.2 RU; binding response (RU) [13]: 0.3 RU; binding response (RU) [14]: 25 RU; binding response (RU) [15]: 110 RU; binding response (RU) [16]: 8.4 RU; binding result [17]: no binding (tested: 4.7 µM); binding result [18]: no binding (tested: 4.7 µM) |
| IgG1 WT of the anti-EGFR antibody panitumumab (IgG2 Fc region replaced with a human wildtype IgG1 Fc region) (antibody, The legends were followed; also called anti-EGFR antibody IgG1 WT) heavy: not shown light: not shown | 1400 RU | 650 RU | 2400 RU | 530 RU | 250 RU | 910 RU | 840 RU | 2800 RU | binding response (RU) [19]: 1700 RU; Kd [20]: 5.8 nM; binding response (RU) [21]: 6700 RU; koff [22]: 2.1 s⁻¹ |
